In one experiment the test system is MDA-MB-231 cells. In words: GFP-TR3/ΔDBD localization and cytochrome c release in MDA-MB-231 cells. Type of experiment: cell-based. Particulars: MDA-MB-231, absence of any treatment. Here is the method: Subcellular localization assays—Cells were seeded onto cover-slips in 6-well plates overnight, then transiently transfected with GFP-fusion expression plasmids. After 16 hours, cells were washed with PBS and fixed in 4% paraformaldehyde. For mitochondrial staining, cells were then incubated with anti-Hsp60 goat IgG (Santa Cruz, USA), followed by anti-goat IgG conjugated with Cy3 (Sigma). For cyt c staining, cells were incubated with monoclonal anti-cyt c IgG (PharMingen), followed by anti-mouse IgG conjugated with Cy5 (Amersham). Fluorescent images were collected and analyzed using a MRC-1024 MP laser-scanning confocal microscope (Bio-Rad). Subcellular fractionation assays were performed as described (Li, et al. 2000 Science 289:1159-1164). Briefly, cells (1×10^7 cells) suspended in 0.5 ml hypotonic buffer (5 mM Tris-HCl, pH 7.4, 5 mM KCl, 1.5 mM MgCl2, 0.1 mM EGTA, pH 8.0, and 1 mM DTT) were homogenized and cell extracts were centrifuged at 500×g for 5 min. […]
To study whether the TR3 nuclear-to-mitochondrial targeting pathway also occurs in breast cancer cells, a GFP-TR3 fusion construct was transfected into MDA-MB-231 cells. […] Next, GFP-TR3/ΔDBD was transiently transfected into ZR-75-1 or MDA-MB-231 cells, stained for mitochondria (Hsp60) and cytochrome c (Cyt c), and analyzed by confocal microscopy.

A further experiment relates to LNCaP cells. Put plainly: Colocalization of transfected GFP-TR3/ΔDBD and Bcl-2 in LNCaP cells. Particulars: cotransfected with Bcl-2, 20 h. Type of experiment: cell-based. On the procedure:
Next, the interaction of transfected TR3 and Bcl-2 was analyzed.

Experiment [1] deals with Calu-6 lung cancer cells. In words: Mitochondrial targeting and cytochrome c release in Calu-6 cells. Type of experiment: cell-based. From the text: TR3/ΔDBD targets mitochondria in NCI-H460 cells, which express high levels of Bcl-2 (Lu et al. 2001 Cancer Chemother Pharmacol 47:170-178). To determine whether Bcl-2 is involved in mitochondrial targeting of TR3, GFP-TR3/ΔDBD was transfected into Calu-6 lung cancer cells, which express low levels of Bcl-2. GFP-TR3/ΔDBD and Bcl-2 were transfected into Calu-6 lung cancer cells alone or together.

The subject of experiment [2] is Calu-6 lung cancer cells. Put plainly: DAPI apoptosis assay in Calu-6 cells. Type of experiment: cell-based. On the procedure: Apoptosis assays—For nuclear morphological change analysis, cells were trypsinized, washed with PBS, fixed with 3.7% paraformaldehyde, and stained with DAPI (4,6-diamidino-2-phenylindole) (50 μg/ml) to visualize the nuclei by UV-microscopy. The percentages of apoptotic cells were determined by counting 300 GFP-positive cells, scoring cells having nuclear fragmentation and/or chromatin condensation.
DAPI staining was used to study the apoptotic effect of TR3/Bcl-2 interaction. 293T cells were transfected with GFP-TR3/ΔDBD alone or together with Bcl-2. After 36 h, nuclei were stained by DAPI and nuclear fragmentation and chromatin condensation were identified. Cells were also stained with anti-Bcl-2 antibody, followed by TRITC-conjugated secondary antibody (Sigma). Bcl-2 and GFP-ΔDBD expression and nuclear morphology were visualized by fluorescence microscopy, and the two images were overlaid. […] But, when Bcl-2 was cotransfected, a significant amount of transfected cells underwent apoptosis. For example, approximately 4% of cells transfected with either TR3/ΔDBD or Bcl-2 were apoptotic, compared to 35% of cell transfected with both. […] Cotransfection of Bcl-2, however, prevented BAX-induced apoptosis in these cells (see FIG. 4). The effect of Bcl-2 on apoptotic potential of TR3/ΔDBD in lung cancer and breast cancer cells was also investigated.

The next experiment relates to 293T cells. Put plainly: Cytochrome c release in 293T cells (confocal microscopy). In kind it is cell-based, human. On the procedure: Subcellular localization assays—Cells were seeded onto cover-slips in 6-well plates overnight, then transiently transfected with GFP-fusion expression plasmids. After 16 hours, cells were washed with PBS and fixed in 4% paraformaldehyde. For mitochondrial staining, cells were then incubated with anti-Hsp60 goat IgG (Santa Cruz, USA), followed by anti-goat IgG conjugated with Cy3 (Sigma). For cyt c staining, cells were incubated with monoclonal anti-cyt c IgG (PharMingen), followed by anti-mouse IgG conjugated with Cy5 (Amersham). Fluorescent images were collected and analyzed using a MRC-1024 MP laser-scanning confocal microscope (Bio-Rad). Subcellular fractionation assays were performed as described (Li, et al. 2000 Science 289:1159-1164). Briefly, cells (1×10^7 cells) suspended in 0.5 ml hypotonic buffer (5 mM Tris-HCl, pH 7.4, 5 mM KCl, 1.5 mM MgCl2, 0.1 mM EGTA, pH 8.0, and 1 mM DTT) were homogenized and cell extracts were centrifuged at 500×g for 5 min. The resulting supernatant was centrifuged at 10,000×g for 30 min at 4° C. to obtain the HM fraction. HM fraction was resuspended in 100 μl lysis buffer (10 mM Tris, pH 7.4, 150 mM NaCl, 1% Triton X-100, 5 mM EDTA, pH 8.0) for immunoblotting analysis.
The involvement of TR3/Bcl-2 interaction in TR3-induced cytochrome c release was also studied. […] Nor did transient expression of Bcl-2 alone.

B1: TR3/ΔDBD: TR3 mutant with the DNA binding domain removed; used as GFP fusion (protein)
chain: MPCIQAQYGTPAPSPGPRDHLASDPLTPEFIKPTMDLASPEAAPAAPTALPSFSTFMDGYTGEFDTFLYQLPGTVQPCSSASSSASSTSSSSATSPASASFKFEDFQVYGCYPGPLSGPVDEALSSSGSDYYGSPCSAPSPSTPSFQPPQLSPWDGSFGHFSPSQTYLVLHRLQCARGFGDWIDSILAFSRSLHSLLVDVPAFACLSALVLITDRHGLQEPRRVEELQNRIASCLKEHVAAVAGEPQPASCLSRLLGKLPELRTLCTQGLQRIFYLKLEDLVPPPPIIDKIFMDTLPF
modifications: left off: large carriers; small tags and cut ends
notes: used as GFP fusion
For B1, in the experiment with MDA-MB-231 cells, the GFP-TR3/ΔDBD subcellular localization result is “targeted to mitochondria”. Moreover, the cytochrome c release result is “caused release of cytochrome c from the mitochondria” with MDA-MB-231 cells; “released from mitochondria” in the experiment on Calu-6 lung cancer cells [1] (Calu-6, Bcl-2 cotransfected); “did not cause any release of cytochrome c” in the experiment with 293T cells (absence of Bcl-2 cotransfection); “did not induce cyt c release” in the experiment with 293T cells (co-expression with Bcl-2/Y108K); “did not occur” in the experiment with 293T cells (co-transfection with Bcl-2/ΔTM); “significant release of cytochrome c” in the experiment on 293T cells (cotransfection with Bcl-2). Further, in the experiment with LNCaP cells, the “transfected cells exhibiting colocalization with Bcl-2” value is recorded as “Approximately 30%”. In addition, the subcellular distribution entry is “targeted mitochondria” with Calu-6 lung cancer cells [1] (Calu-6, Bcl-2 co-transfected) and “diffusely distributed” in the experiment on Calu-6 lung cancer cells [1] (Calu-6, alone). The apoptosis entry with Calu-6 lung cancer cells [2] (Calu-6, absence of Bcl-2) is reported as “did not show any apoptotic effect”; with Calu-6 lung cancer cells [2] (Calu-6, co-expression of Bcl-2) it was “strong induction of apoptosis”. Further, the “TR3/ΔDBD and Bcl-2 colocalized cells displaying diffuse cyt c staining” value in the experiment on 293T cells (cotransfected with Bcl-2) is reported as “Approximately 75%”.

Source of the values: patent US8273705B2, “Conversion of apoptotic proteins” (The Burnham Institute, priority 2002, dated 2012).
